Measurements published in paper PMC9377797, “Hypoxia-induced proteasomal degradation of DBC1 by SIAH2 in breast cancer progression” (eLife, 2022).

How the values were obtained:
[1] = biological target: T1, N-terminal half of His-DBC1 (1–461) (human, UniProt Q8N163 1-461); test: pull-down; GST-SIAH2 and His-DBC1 proteins from E. coli incubated in vitro overnight, GST beads for 2 hr at 4°C; blotted with an anti-DBC1 antibody; conditions: both partners purified
T1 construct: source: bacterially expressed (E. coli)

His-DBC1 = biological target: T2, His-DBC1 (human, UniProt Q8N163 1-923); test: as above; conditions: both partners purified
T2 construct: Deleted in breast cancer 1 (DBC1, CCAR2), human; also called His-tagged DBC1; source: E. coli BL21, purified
T2 sequence (Q8N163 whole entry): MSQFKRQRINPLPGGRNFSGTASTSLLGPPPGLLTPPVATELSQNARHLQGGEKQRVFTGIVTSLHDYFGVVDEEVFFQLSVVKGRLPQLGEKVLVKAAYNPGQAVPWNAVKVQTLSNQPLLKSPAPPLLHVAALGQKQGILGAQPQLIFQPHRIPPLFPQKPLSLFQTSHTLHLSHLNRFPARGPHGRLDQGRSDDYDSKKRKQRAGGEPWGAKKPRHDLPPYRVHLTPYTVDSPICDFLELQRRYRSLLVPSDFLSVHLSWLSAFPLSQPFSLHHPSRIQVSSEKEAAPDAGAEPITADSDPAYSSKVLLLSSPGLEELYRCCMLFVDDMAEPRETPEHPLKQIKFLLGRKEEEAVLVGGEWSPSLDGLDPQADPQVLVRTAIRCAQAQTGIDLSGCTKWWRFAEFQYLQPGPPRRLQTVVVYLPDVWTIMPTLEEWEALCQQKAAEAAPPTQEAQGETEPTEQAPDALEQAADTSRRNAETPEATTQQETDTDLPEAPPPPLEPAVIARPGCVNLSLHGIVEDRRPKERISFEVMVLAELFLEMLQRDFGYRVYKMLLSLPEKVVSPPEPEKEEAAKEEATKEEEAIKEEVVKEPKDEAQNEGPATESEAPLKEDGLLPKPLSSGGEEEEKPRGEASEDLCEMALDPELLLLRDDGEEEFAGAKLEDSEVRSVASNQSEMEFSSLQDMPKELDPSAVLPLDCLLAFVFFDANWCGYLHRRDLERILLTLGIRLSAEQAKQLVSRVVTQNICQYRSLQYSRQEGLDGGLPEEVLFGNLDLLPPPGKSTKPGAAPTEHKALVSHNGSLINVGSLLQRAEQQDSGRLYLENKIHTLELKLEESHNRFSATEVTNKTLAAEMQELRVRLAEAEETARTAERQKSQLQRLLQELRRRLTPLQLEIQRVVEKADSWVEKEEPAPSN

T1 sequence (Q8N163 1-461): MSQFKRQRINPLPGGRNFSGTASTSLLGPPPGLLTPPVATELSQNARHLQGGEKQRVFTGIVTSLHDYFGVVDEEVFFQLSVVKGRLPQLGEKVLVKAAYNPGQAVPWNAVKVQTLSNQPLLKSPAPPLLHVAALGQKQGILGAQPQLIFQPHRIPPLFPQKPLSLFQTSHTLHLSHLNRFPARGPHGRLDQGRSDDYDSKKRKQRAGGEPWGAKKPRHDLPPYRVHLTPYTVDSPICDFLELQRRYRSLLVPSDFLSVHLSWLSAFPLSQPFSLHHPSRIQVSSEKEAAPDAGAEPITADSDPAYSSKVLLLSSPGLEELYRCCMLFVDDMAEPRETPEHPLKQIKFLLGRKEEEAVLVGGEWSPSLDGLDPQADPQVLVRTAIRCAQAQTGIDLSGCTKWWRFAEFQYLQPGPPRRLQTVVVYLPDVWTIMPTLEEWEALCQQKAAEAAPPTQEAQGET

- binding result [1]: binds
- binding result (His-DBC1): binds
B1: GST-SIAH2 (enzyme, human, UniProt O43255 1-324, looked up)
chain: MSRPSSTGPSANKPCSKQPPPQPQHTPSPAAPPAAATISAAGPGSSAVPAAAAVISGPGGGGGAGPVSPQHHELTSLFECPVCFDYVLPPILQCQAGHLVCNQCRQKLSCCPTCRGALTPSIRNLAMEKVASAVLFPCKYATTGCSLTLHHTEKPEHEDICEYRPYSCPCPGASCKWQGSLEAVMSHLMHAHKSITTLQGEDIVFLATDINLPGAVDWVMMQSCFGHHFMLVLEKQEKYEGHQQFFAIVLLIGTRKQAENFAYRLELNGNRRRLTWEATPRSIHDGVAAAIMNSDCLVFDTAIAHLFADNGNLGINVTISTCCP
notes: E3 ubiquitin ligase SIAH2, human, wild type; also called GST-tagged SIAH2; purified glutathione S-transferase (GST) SIAH2; source: E. coli BL21, purified
